This note sets out measurements from patent US20230265217A1 (TWIST BIOSCIENCE, published 2023).

The chains are these.
B1: 7-09 (VHH)
VHH: EVQLVESGGGLVQPGGSLRLSCAASGGTFSSIGMGWFRQAPGKEREFVAAISWDGGATAYADSVKGRFTISADNSKNTAYLQMNSLKPEDTAVYYCAKEDVGKPFDWGQGTLVTVSS
notes: also called 7-9
B2: 5A-1 (VHH)
VHH: B1 VHH
B3: 7-26 (VHH)
VHH: EVQLVESGGGLVQPGGSLRLSCAASGSTFSINAMGWFRQAPGKEREFVAGITSSGGYTNYADSVKGRFTISADNSKNTAYLQMNSLKPEDTAVYYCAADGVPEYSDYASGPVWGQGTLVTVSS
B4: 3-31 (VHH)
VHH: B3 VHH
notes: also called 3-31_ExpiCHO
B5: 7-37 (VHH)
VHH: B3 VHH with F29L, S53R, G56S, Y57V
B6: 6A-63 (VHH)
VHH: EVQLVESGGGLVQPGGSLRLSCAASGQTFNMGWFRQAPGKEREFVAAIGSGGSTSYADSVKGRFTISADNSKNTAYLQMNSLKPEDTAVYYCWRLGNDYFDYWGQGTLVTVSS
B7: 6A-3 (VHH)
VHH: EVQLVESGGGLVQPGGSLRLSCAASGFTFSPSWMGWFRQAPGKEREFVATINEYGGRNYADSVKGRFTISADNSKNTAYLQMNSLKPEDTAVYYCARVDRDFDYWGQGTLVTVSS
B8: 7-30 (VHH, not shown: a dimerising Fc or GST)
VHH: EVQLVESGGGLVQPGGSLRLSCAASGRTFSMHAMGWFRQAPGKEREFVASISSQGRTNYADSVKGRFTISADNSKNTAYLQMNSLKPEDTAVYYCAAEVRNGSDYLPIDWGQGTLVTVSS
B9: 7-14 (VHH)
VHH: EVQLVESGGGLVQPGGSLRLSCAASGSTFSINAMGWFRQAPGKEREFVAGISRGGTTNYADSVKGRFTISADNSKNTAYLQMNSLKPEDTAVYYCAADGVPEYSDYASGPVWGQGTLVTVSS
B10: 3-28 (VHH, not shown: a dimerising Fc or GST)
VHH: EVQLVESGGGLVQPGGSLRLSCAASGFTFRRYDMGWFRQAPGKEREFVSAISGGLAYYADSVKGRFTISADNSKNTAYLQMNSLKPEDTAVYYCAVDLSGDAVYDWGQGTLVTVSS
B11: 8-10 (VHH, not shown: a dimerising Fc or GST)
VHH: EVQLVESGGGLVQPGGSLRLSCAASGFIGNYHAMGWFRQAPGKEREFVAAVTWSGGTTNYADSVKGRFTISADNSKNTAYLQMNSLKPEDTAVYYCAREGYYYDSSGYPYYFDYWGQGTLVTVSS
B12: 8-06 (VHH, not shown: a dimerising Fc or GST)
VHH: EVQLVESGGGLVQPGGSLRLSCAASGFTFDYYAMGWFRQAPGKEREFVSAIDSEGRTSYADSVKGRFTISADNSKNTAYLQMNSLKPEDTAVYYCARWGPFDIWGQGTLVTVSS
notes: also called 8-6
B13: 7-6 (VHH, not shown: a dimerising Fc or GST)
VHH: EVQLVESGGGLVQPGGSLRLSCAASGRIFYPMGWFRQAPGKEREFVAAVRWSSTGIYYTQYADSVKGRFTISADNSKNTAYLQMNSLKPEDTAVYYCAAALSEVWRGSENLREGYDWGQGTLVTVSS
B14: 7-8 (VHH)
VHH: B3 VHH with S30T, A49S, T52S, S53H, S54N, Y57T
B15: 3-17 (VHH, not shown: a dimerising Fc or GST)
VHH: EVQLVESGGGLVQPGGSLRLSCAASGRTSSSAVMGWFRQAPGKEREFVAAINRGGSTIYVDSVKGRFTISADNSKNTAYLQMNSLKPEDTAVYYCATGPYRSYFARSYLWGQGTLVTVSS
B16: 8-3 (VHH, not shown: a dimerising Fc or GST)
VHH: EVQLVESGGGLVQPGGSLRLSCAASGTTLDYYAMGWFRQAPGKEREFVAAISWSGGSTAYADSVKGRFTISADNSKNTAYLQMNSLKPEDTAVYYCAREDYYDSSGYSWGQGTLVTVSS
B17: 7-21 (VHH)
VHH: EVQLVESGGGLVQPGGSLRLSCAASGRTISRYTMGWFRQAPGKEREFVASITSGGSTAYADSVKGRFTISADNSKNTAYLQMNSLKPEDTAVYYCAKEDVGKPFDWGQGTLVTVSS
B18: 7-40 (VHH)
VHH: B17 VHH with I29F, S30R, S53K, G54F, A58N
B19: 7-41 (VHH)
VHH: B17 VHH with I29F, R31T, T33V, T52S, G54R, S56I, A58H
B20: 7-22 (VHH, not shown: a dimerising Fc or GST)
VHH: B17 VHH with S30T, E98Q
B21: 7-45 (VHH)
VHH: B17 VHH with I29L, A58N
B22: 7-24 (VHH, not shown: a dimerising Fc or GST)
VHH: EVQLVESGGGLVQPGGSLRLSCAASGFTFSRHAMNWFRQAPGKEREFVSTITGSGGSTNYADSVKGRFTISADNSKNTAYLQMNSLKPEDTAVYYCAREVGLYYYGSGSSSRRLLGRIDYYFDYWGQGTLVTVSS
B23: 7-29 (VHH, not shown: a dimerising Fc or GST)
VHH: EVQLVESGGGLVQPGGSLRLSCAASGRTHSIYPMGWFRQAPGKEREFVASITSYGDTNYADSVKGRFTISADNSKNTAYLQMNSLKPEDTAVYYCAARRWIPPGPIWGQGTLVTVSS
B24: 3-24 (VHH, not shown: a dimerising Fc or GST)
VHH: EVQLVESGGGLVQPGGSLRLSCAASGINFSRYGMGWFRQAPGKEREFVASITYLGRTNYADSVKGRFTISADNSKNTAYLQMNSLKPEDTAVYYCALRVRPYGQYDWGQGTLVTVSS
B25: 7-17 (VHH, not shown: a dimerising Fc or GST)
VHH: EVQLVESGGGLVQPGGSLRLSCAASGFSLDYYGMGWFRQAPGKEREFVAAITSGGTPHYADSVKGRFTISADNSKNTAYLQMNSLKPEDTAVYYCASAYNPGIGYDWGQGTLVTVSS
B26: 7-31 (VHH, not shown: a dimerising Fc or GST)
VHH: EVQLVESGGGLVQPGGSLRLSCAASGFTFSNYSMGWFRQAPGKEREFVAAIHWNGDSTAYADSVKGRFTISADNSKNTAYLQMNSLKPEDTAVYYCAAQTEDSAQYIWGQGTLVTVSS
B27: 7-32 (VHH)
VHH: B9 VHH with I31V, I51V, S52T, T56Y

Substitutions are numbered along the chain they refer to.

One test has as its target T1, SARS-CoV-2 S1 (Acro) (SARS-CoV-2, UniProt P0DTC2 16-685).
T1 construct: also called Acro S1
As to the kind of experiment: Carterra SPR.
The molecule B1 returned a dissociation constant (Kd) of 0.0241 µM.
As to B2, binding was put at a Kd of 0.0066 µM.
Molecule B3 gave a Kd of 0.0248 µM.
On to B4, for which the affinity, expressed as Kd, was 0.021 µM.
Same read-out and setting: the same measure for B5: 0.0216 µM; for B6: 0.0464 µM; for B7: 0.0315 µM.
On the same count and under the same terms, to B8 belongs 0.0487 µM.
With B9, the Kd was found to be 0.0208 µM.
In the case of B10, the Kd came to 0.0522 µM.

For another test, the target named is SARS-CoV-2 S1 monomer (SARS-CoV-2, UniProt P0DTC2 16-685). Kind of test: binding kinetics, Carterra SPR.
Molecule B3 returned a Kd of 0.00363 µM.
In turn, B4 gave a Kd of 0.00591 µM.
Consider B5, for which binding was put at a Kd of 0.0171 µM, the koff worked out at 0.000528 s⁻¹ and the on-rate constant (kon) amounted to 30800 M⁻¹ s⁻¹.
The molecule B9 registered a Kd of 0.00957 µM, a koff of 0.000404 s⁻¹ and a kon of 42200 M⁻¹ s⁻¹.

In the next test the target is T1, SARS-CoV-2 S1 (Acro). As to the kind of experiment: Carterra SPR. This is another data set of the same source.
Molecule B11 returned a dissociation constant Kd of 658 µM.
Same read-out and setting: the same measure for B12: 0.0377 µM; for B13: 0.0424 µM; for B1: 0.0241 µM.
Same read-out and setting: to B3 belongs 0.0248 µM; to B4, 0.021 µM.
With B14, binding was characterised by a dissociation constant (Kd) of 0.0528 µM.
Consider B5, for which binding was characterised by a dissociation constant (Kd) of 0.0216 µM.
In turn, B15 showed a Kd of 0.141 µM.
The same measure, in the same setting: the same measure for B16: 18.4 µM; for B17: 0.0271 µM; for B18: 85.6 µM.
Take B19: the affinity, expressed as Kd, was 0.0481 µM.
With B20, the dissociation constant Kd turned out to be 0.0409 µM.
With B21, the Kd amounted to 0.0363 µM.
On the same count and under the same terms, the same measure for B22: 4260 µM.
The molecule B23 registered a Kd of 0.0312 µM.
Consider B24, for which the binding result is “no binding”.
In turn, B8 displayed a dissociation constant Kd of 0.0487 µM.
Same read-out and setting: the same measure for B25: 0.0604 µM.
Same read-out and setting: the same measure for B26: 0.228 µM.
Still for that read-out and setting: the same measure for B9: 0.0208 µM.
With B27, the affinity, expressed as Kd, was 0.0485 µM.
Same read-out and setting: the same measure for B10: 0.0522 µM.

A word on the Kd: it is a measure of binding affinity in units of concentration. Read a low Kd as tighter binding. What is called koff is the rate constant with which the complex falls apart. The low end stands for a long-lived complex, the high end for a short-lived complex. By kon is commonly meant a measure of how fast the partners come together. A low value points to slower complex formation.
